Laboratory results: patent publication US9205136B2, “Human aminoacyl-tRNA synthetase polypeptides useful for the regulation of angiogenesis” (THE SCRIPPS RESEARCH INSTITUTE, priority 2000, dated 2015)

B1: mini TrpRS: truncated TrpRS, residues 48-471 of full-length TrpRS (protein)
chain: MSYKAAAGEDYKADCPPGNPAPTSNHGPDATEAEEDFVDPWTVQTSSAKGIDYDKLIVRFGSSKIDKELINRIERATGQRPHHFLRRGIFFSHRDMNQVLDAYENKKPFYLYTGRGPSSEAMHVGHLIPFIFTKWLQDVFNVPLVIQMTDDEKYLWKDLTLDQAYGDAVENAKDIIACGFDINKTFIFSDLDYMGMSSGFYKNVVKIQKHVTFNQVKGIFGFTDSDCIGKISFPAIQAAPSFSNSFPQIFRDRTDIQCLIPCAIDQDPYFRMTRDVAPRIGYPKPALLHSTFFPALQGAQTKMSASDPNSSIFLTDTAKQIKTKVNKHAFSGGRDTIEEHRQFGGNCDVDVSFMYLTFFLEDDDKLEQIRKDYTSGAMLTGELKKALIEVLQPLIAEHQARRKEVTDEIVKEFMTPRKLSFDFQKLAAALEHHHHHH
modifications: His6 tag; Human mini TrpRS in pET20B
notes: truncated TrpRS, residues 48-471 of full-length TrpRS
B2: inactive TrpRS: minor PMN elastase fragment of TrpRS, amino-terminal residue at position 94 of full-length TrpRS (protein)
chain: MSAKGIDYDKLIVRFGSSKIDKELINRIERATGQRPHHFLRRGIFFSHRDMNQVLDAYENKKPFYLYTGRGPSSEAMHVGHLIPFIFTKWLQDVFNVPLVIQMTDDEKYLWKDLTLDQAYGDAVENAKDIIACGFDINKTFIFSDLDYMGMSSGFYKNVVKIQKHVTFNQVKGIFGFTDSDCIGKISFPAIQAAPSFSNSFPQIFRDRTDIQCLIPCAIDQDPYFRMTRDVAPRIGYPKPALLHSTFFPALQGAQTKMSASDPNSSIFLTDTAKQIKTKVNKHAFSGGRDTIEEHRQFGGNCDVDVSFMYLTFFLEDDDKLEQIRKDYTSGAMLTGELKKALIEVLQPLIAEHQARRKEVTDEIVKEFMTPRKLSFDFQKLAAALEHHHHHH
modifications: His6 tag; Human inactive TrpRS in pET20B
notes: minor PMN elastase fragment of TrpRS, amino-terminal residue at position 94 of full-length TrpRS
B3: full-length TrpRS: recombinant human tryptophanyl-tRNA synthetase, 471 amino acid residues (protein)
chain: MPNSEPASLLELFNSIATQGELVRSLKAGNASKDEIDSAVKMLVSLKMSYKAAAGEDYKADCPPGNPAPTSNHGPDATEAEEDFVDPWTVQTSSAKGIDYDKLIVRFGSSKIDKELINRIERATGQRPHHFLRRGIFFSHRDMNQVLDAYENKKPFYLYTGRGPSSEAMHVGHLIPFIFTKWLQDVFNVPLVIQMTDDEKYLWKDLTLDQAYGDAVENAKDIIACGFDINKTFIFSDLDYMGMSSGFYKNVVKIQKHVTFNQVKGIFGFTDSDCIGKISFPAIQAAPSFSNSFPQIFRDRTDIQCLIPCAIDQDPYFRMTRDVAPRIGYPKPALLHSTFFPALQGAQTKMSASDPNSSIFLTDTAKQIKTKVNKHAFSGGRDTIEEHRQFGGNCDVDVSFMYLTFFLEDDDKLEQIRKDYTSGAMLTGELKKALIEVLQPLIAEHQARRKEVTDEIVKEFMTPRKLSFDFQKLAAALEHHHHHH
modifications: His6 tag; Human full-length TrpRS in pET20B
notes: recombinant human tryptophanyl-tRNA synthetase, 471 amino acid residues
B4: supermini TrpRS: residues 71-471 of full-length TrpRS, major PMN elastase fragment (protein)
chain: MSNHGPDATEAEEDFVDPWTVQTSSAKGIDYDKLIVRFGSSKIDKELINRIERATGQRPHHFLRRGIFFSHRDMNQVLDAYENKKPFYLYTGRGPSSEAMHVGHLIPFIFTKWLQDVFNVPLVIQMTDDEKYLWKDLTLDQAYGDAVENAKDIIACGFDINKTFIFSDLDYMGMSSGFYKNVVKIQKHVTFNQVKGIFGFTDSDCIGKISFPAIQAAPSFSNSFPQIFRDRTDIQCLIPCAIDQDPYFRMTRDVAPRIGYPKPALLHSTFFPALQGAQTKMSASDPNSSIFLTDTAKQIKTKVNKHAFSGGRDTIEEHRQFGGNCDVDVSFMYLTFFLEDDDKLEQIRKDYTSGAMLTGELKKALIEVLQPLIAEHQARRKEVTDEIVKEFMTPRKLSFDFQKLAAALEHHHHHH
modifications: His6 tag; Human supermini TrpRS in pET20B
notes: residues 71-471 of full-length TrpRS, major PMN elastase fragment

The molecules below were run on HUVEC (assay: Inhibition of VEGF165-induced cell proliferation). Details: 2 μM TrpRS, 2 nM VEGF165, 72 hours.
Format: cell-based, human
Protocol: The angiostatic activity of TrpRS was first evaluated in experiments testing the ability of human full-length TrpRS and human mini TrpRS to inhibit human VEGF165-induced cell proliferation. Tissue culture-treated 96-well plates (Corning Costar Corp., Cambridge, Mass.) were coated with 0.1% gelatin (Sigma) overnight. Cells were then seeded in the gelatinized plates at a density of 5×10^3 cells per well in DMEM medium (Gibco-BRL) containing heat-inactivated fetal bovine serum (FBS) (10%, Sigma) and penicillin/streptomycin (100 units/mL-100 μg/mL, Sigma). The following day, the cells were treated with 2 μM of a given TrpRS in the presence of 2 nM VEGF165. After 72 hours of incubation, assays were performed by using the […] 96® aqueous one-solution cell proliferation assay kit (Promega, Madison, Wis.). Results of the inhibition assay are shown in FIG. 18 as the percentage of net proliferation of VEGF165. Each determination shown represents the mean of five experiments.

| Molecule | inhibition of VEGF165-induced cell proliferation |
| --- | --- |
| B1 | able to inhibit human VEGF165-induced cell proliferation |
| B2 | did not exhibit angiostatic activity |
| B3 | exhibited no angiostatic activity |
| B4 | capable of inhibiting HUVEC proliferation and migration |

These molecules were tested on HUVEC (assay: Inhibition of VEGF165-induced or mini TyrRS-induced HUVEC migration). Details: 500 nM TrpRS, 0.5 nM VEGF165.
Format: cell-based, human
Protocol: Cell migration assays were performed using the modified Boyden chamber (6.5 mm Transwells) with polycarbonate membranes (8.0 μm pore size) (Costar Corp., Cambridge, Mass.) (Masood et al., 1999, Blood 93:1038-44). Wells were coated overnight with 25 μg/mL human fibronectin (Biosource International, Camarillo, Calif.) in PBS and then allowed to air-dry. HUVECs were suspended in Dulbecco's modified Eagle's medium (DMEM) (Gibco-BRL, Gaithersburg, Md.) containing 0.1% BSA (Sigma) and 2×10^5 cells per well were added to the upper chamber. The chemotactic stimulus (50 nM of a given TyrRS molecule or 0.5 nM of human vascular endothelial growth factor-165 (VEGF165) (Biosource International, Camarillo, Calif.)) was placed in the lower chamber, and the cells were allowed to migrate for 6 hours at 37° C. in a 6% CO2 incubator. After incubation, non-migrant cells were removed from the upper face of the Transwell membrane with a cotton swab and migrant cells, those attached to the lower face, were fixed in methanol and visualized with the HEMACOLOR® stain set (EM Diagnostic Systems, Gibbstown, N.J.). Migrating cells were counted in high-power fields (HPFs). HUVECs were suspended in media with the inhibitor for 30 minutes before placement in the chamber. Each determination shown in FIG. 16 represents the average of nine HPF measurements.
The angiostatic activity of TrpRS was next evaluated in experiments testing the ability of human full-length TrpRS and human mini TrpRS to inhibit human VEGF165-induced or human mini TyrRS-induced cell migration. Cell migration assays were performed as described in Example 11 with full-length TrpRS or mini TrpRS added to VEGF165-induced or mini TyrRS-induced HUVEC samples. HUVEC samples were treated with 0.5 nM VEGF165, 50 nM mini TyrRS, and 500 nM of a given TrpRS. Four measurements of chemotaxis were done for each protein. Each determination shown in FIG. 19 represents the average of nine HPF measurements. […] In contrast, human full-length TrpRS had no effect on VEGF165-induced or mini TyrRS-induced HUVEC chemotaxis.

| Molecule | inhibition of VEGF165-induced HUVEC chemotaxis |
| --- | --- |
| B1 | inhibited |
| B3 | had no effect |

Same assay, conditions: 500 nM TrpRS, 50 nM mini TyrRS

| Molecule | inhibition of mini TyrRS-induced HUVEC chemotaxis |
| --- | --- |
| B1 | inhibited |
| B3 | had no effect |

Same assay, conditions: as described in Example 14, inducer not stated

| Molecule | inhibition of HUVEC migration |
| --- | --- |
| B2 | did not exhibit angiostatic activity |
| B4 | capable of inhibiting HUVEC proliferation and migration |

The molecules below were run on chick CAM (assay: Inhibition of VEGF165-induced or mini TyrRS-induced angiogenesis in chick CAM). Details: 3 μg inhibitor, 25 ng VEGF165, 72 hours.
Format: in vivo
Protocol: In vivo angiogenesis assays were conducted in chick chorioallantoic membrane (CAM) (Nicolaou et al., 1998, Bioorg. Med. Chem. 6:1185-208). Ten-day-old chick embryos were purchased from Mcintyre Poultry (Lakeside, Calif.) and were incubated at 37° C. and 70% humidity. A small hole was made with a small crafts drill (Dremel, Emerson Electric, Racine, Wis.) directly over the air sac at the end of the egg. The embryos were candled to determine a location to drill a second hole directly over embryonic blood vessels. […] A window was cut in the eggshell over the dropped CAM, exposing the CAM to direct access for experimental manipulation. Cortisone acetate-treated 5 mm filter disks were soaked with a particular protein sample (25 ng of VEGF165 or 250 ng of a given TyrRS molecule) and the filter disks added directly to the CAMs, which were relatively devoid of preexisting blood vessels. The windows were sealed with sterile tape and incubated at 37° C. At 0, 24, and 48 hours following incubation, 3 μg of […] (IP-10) (R & D Systems, Minneapolis, Minn.) was topically applied to the filter disks. After 72 hours, the CAM tissue associated with the filter disk was harvested and quantified using a stereomicroscope. Angiogenesis was assessed as the number of visible blood vessel branch points within the defined area of the filter disks. Each determination shown in FIG. 17 represents the mean from 5-8 embryos.
The angiostatic activity of human full-length TrpRS and human mini TrpRS was also analyzed in in vivo angiogenesis assays conducted in chick CAM. In vivo angiogenesis assays were performed as described in Example 12 with 3 μg of full-length TrpRS or mini TrpRS added to VEGF165-induced or mini TyrRS-induced CAM tissue.

| Molecule | inhibition of VEGF165-induced angiogenesis in chick CAM |
| --- | --- |
| B1 | inhibited |
| B2 | did not exhibit angiostatic activity |
| B3 | no observable angiostatic activity |
| B4 | capable of inhibiting |

Same assay, conditions: 3 μg inhibitor, 250 ng mini TyrRS, 72 hours

| Molecule | inhibition of mini TyrRS-induced angiogenesis in chick CAM |
| --- | --- |
| B1 | inhibited |
| B2 | did not exhibit angiostatic activity |
| B3 | no observable angiostatic activity |
| B4 | capable of inhibiting |
